experiment: soluble on expression in E. coli; label from the status in PepcDB or PDB records

Sequence | soluble on expression in E. coli
MGDEDDDESCAVELRITEANLTGHEEKVSVENFELLKVLGTGAYGKVFLVRKAGGHDAGKLYAMKVLRKAALVQRAKTQEHTRTERSVLELVRQAPFLVTLHYAFQTDAKLHLILDYVSGGEMFTHLYQRQYFKEAEVRVYGGEIVLALEHLHKLGIIYRDLKLENVLLDSEGHIVLTDFGLSKEFLTEEKERTFSFCGTIEYMAPEIIRSKTGHGKAVDWWSLGILLFELLTGASPFTLEGERNTQAEVSRRILKCSPPFPPRIGPVAQDLLQRLLCKDPKKRLGAGPQGAQEVRNHPFFQGLDWVALAARKIPAPFRPQIRSELDVGNFAEEFTRLEPVYSPPGSPPPGDPRIFQGYSFVAPSILFDHNNAVMTDGLEAPGAGDRPGRAAVARSAMMQYELDLREPALGQGSFSVCRRCRQRQSGQEFAVKILSRRLEANTQREVAALRLCQSHPNVVNLHEVHHDQPHTYLVLELLRGGELLEHIRKKRHFSESEASQILRSLVSAVSFMHEEAGVVHRDLKPENILYADDTPGAPVKIIDFGFARLRPQSPGVPMQTPCFTLQYAAPELLAQQGYDESCDLWSLGVILYMMLSGQVPFQGASGQGGQSQAAEIMCKIREGRFSLDGEAWQGVSEEAKELVRGLLTVDPAKRLKLEGLRGSSWLQDGSARSSPPLRTPDVLESSGPAVRSGLNATFMAFNRGKREGFFLKSVENAPLAKRRKQKLRSATASRRGSPAPANPGRAPVAAKGAPRRANGPLPPS | soluble
MGSDKIHHHHHHMMKSVLADAVFGGALMIEFYASEALICPRRVWFRLKGIPEKWPEVAKPRLEKGMKIHEVLGKVLKDRFDVELEKSVIIRFPKLGMEIHGKIDVYKEFPIEIKGKSYIPSSPIDYHLAQLNLYLRGVNAEYGYLYYVKLTDDPWRAISDIVFDSFPLIKGNGLKIFEVPYDEVLFKETVKYFYEIKLYLENDELPPAWKGPHCKFCPYNYICLSGEEF | not soluble
MSLHTSHVIPAPRIDVWEWHTRPGAVFRLTPPFLPLRPLEQATSLAKGTTVFALPAGLRWEARHDLSGYIQHHRFTDVCINAPVKSLASWRHIHDFTDHPSGTLITDTVHTRAPRTTLSPAFAYRQHQLINDIQAQQRFYELTRSNPTESTPLTIGLTGSRGLVGRALTAQLTTLGHTVVQLVRGESKPHQRHWDPAHPAPNLLEGLDALIHLAGEPILGRFNDAHKADIRDSRIEPTRQLSQLVQKSSTCRTMVSASAIGYYGHARGDEILDEGSTQGDDFLASVCEEWEAASRTDATSNKRIVNIRTGVVMSGRGGMLPVLKAVFSVGLGGPFRGSNPWMSWIAIDDLCDIYIRAVLDPKLSGAINAVAPNPIKNQDFVDALAKELKRPAKMTISSLGPAILLGQQGAKELALADQRVQPRVLNNLDHHFRYVDIRSCLAHELGGENLLDI | not soluble
MATTKPYRVLLYYMYTTIENPEEFAAEHLEFCNSLELKGRILVAKEGINGTCSGTVEQTEKYMEAMNNDPRFDGIVFKIDEADGHAFKKMHVRPRPELVTLRLEDDINPHEITGKYLEPKDFYEAMKQEDTVIIDARNDYEFDLGHFKGAIKPDIESFRELPDWIRENKEVLEGKKILTYCTGGIRCEKFSGWLVREGYEDVSQLHGGIVTYGKDPEVQGELWDGQCYVFDERIAVPVNQKEHVIVGKDHFTGEPCERYVNCANPECNKKILCSEENEAKYLRACSHECRVSPRNRYVIQHELTEEQVAAALEQIEAGKLEHHHHHH | not soluble
MGSDKIHHHHHHMKVLVVDDDKLARKGLISIMDWKKYGFEVVGDVQNGRKALEFLKDNEVDIVFTDIDMPEIDGIELMKMCKKEYPEVKFVVFSMYEDFRYAQSALRLGALDYISKISFEGDECDRILELVERKYKENHSQKETRNEDSELIKRLEKAWMNTRWIFNDSEFNRLYELTRGVELRTAERVFIKSFHSLQKLTGEELEFPSLSSVDSMLEWVKQWKENLYQTCLQTDKTKDIYMFARVILYTDEHIEENLKSEEAAAQIGMSRSYFSTRFKEMTGDTFHNYVISRKMYAAAQKMAKGTENITQIASNLGYDNFYYFTKVFSKEYGCMPTEYVGRIKKCSI | not soluble
MAHHHHHHMRVYECDFYSHPAVCKYRLPKPYRHPTLDKRLREQRSVREARALVRCQKQGIAVPAVYAIDRESCAIVMERIIGMSVRDVLNEAQRPLEGAVSPVAARLLEGMGEVVGLLHNAHIIHGDLTTSNFMYRTATVAEGKADSAACGAAPRDRLVVLDFGLVMDKNSAEERAVDLYVLERAIKSSHPSLEGVASAFILNGYRRTADPHQVEATITRLGAVRARGRKRSMVG | not soluble
MRIEVTIAKTSPLPAGAIDALAGELSRRIQYAFPDNEGHVSVRYAAANNLSVIGATKEDKQRISEILQETWESADDWFVSE | soluble

Source: the DeepSol protein solubility set
